# B1: Yah1 (untagged, holo) (natural protein)
# chain: IAAHLLRTSPSLLTRTTTTTRFLPFSTSSFLNHGHLKKPKPGEELKITFILKDGSQKTYEVCEGETILDIAQGHNLDMEGACGGSCACSTCHVIVDPDYYDALPEPEDDENDMLDLAYGLTETSRLGCQIKMSKDIDGIRVALPQMTRNVNNNDFS
# Biological target: NIA–Isu1 complex with C. thermophilum Isu1 (S. cerevisiae | E. coli (endogenous in the expression host) | C. thermophilum) (UniProt P25374)
# Assay: pull-down; competition: Yfh1^GST (2.5 μM) with NIA (5 μM) and Isu1Ct (7.5 μM), then Yah1 WT (increasing concentrations, 50 μM) or Yah1(DD/KK) (50 μM) added; glutathione resin; densitometry, amount without Yah1 set as 100%; buffer PD
# Chain of NIA–Isu1 complex with C. thermophilum Isu1 (S. cerevisiae | E. coli (endogenous in the expression host) | C. thermophilum) (P25374 whole entry, looked up, one chain of several): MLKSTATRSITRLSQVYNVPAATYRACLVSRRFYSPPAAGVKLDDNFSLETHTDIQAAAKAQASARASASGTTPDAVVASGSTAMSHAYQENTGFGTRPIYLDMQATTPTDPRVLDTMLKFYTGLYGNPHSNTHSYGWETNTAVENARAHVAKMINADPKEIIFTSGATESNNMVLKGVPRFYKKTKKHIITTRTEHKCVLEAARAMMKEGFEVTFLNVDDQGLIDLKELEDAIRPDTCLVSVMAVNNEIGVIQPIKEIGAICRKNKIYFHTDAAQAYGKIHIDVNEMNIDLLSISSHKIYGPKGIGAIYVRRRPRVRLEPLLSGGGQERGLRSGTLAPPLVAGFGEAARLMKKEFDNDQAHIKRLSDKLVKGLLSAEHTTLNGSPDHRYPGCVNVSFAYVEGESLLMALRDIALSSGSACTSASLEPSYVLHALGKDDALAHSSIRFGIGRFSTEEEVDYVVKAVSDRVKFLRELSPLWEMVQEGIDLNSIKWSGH
binder,measurement,value
B1,percent of the control left pulled down with Yfh1^GST at 75 μM Yah1,35%
